Test results published in patent publication US20240101687A1.
Residue numbers refer to the chain shown, from its start. Each block holds one binder with its values, some of them ahead of it.

Assays:
[1] = molecular target: human IGF1R extracellular domain, His-tagged (human) (UniProt P08069); assay: ELISA on ECD of IGF1R
[2] = molecular target: human IGF1R on cells (human) (UniProt P08069); assay: FACS on MCF-7 cells, 10 ug/mL (2nd Ab only: 2.86)
[3] = molecular target: human IGF1R on cells (human) (UniProt P08069); assay: FACS on MCF-7 cells (2nd Ab only: 2.92)

- EC50 [1]: 0.144 nM
- GeoMean, Internalization at 37° C. [2]: 7.72
B1: Hu3A9-1564 (bispecific antibody, part only; not given: Hu3A9 heavy and light chains, part only)
heavy, part: GGGGSGGGGSGGGGSQSVLTQPPSASGTPGQRVTISCTGSSSNIGSNDVSWYQQLPGTAPKLLIYANSNRPSGVPDRFSGSKSGTSASLAISGLRSEDEADYYCGAWDDSLNGYVFGCGTKLTVLGGGGSGGGGSGGGGSGGGGSEVQLLESGGGLVQPGGSLRLSCAASGFTFSSYDMSWVRQAPGKCLEWVSAISYDNGNTYYADSVKGRFTISRDNSKNTLYLQMNSLRAEDTAVYYCAKGVLTTLMNWFDYWGQGTLVTVSS

- EC50 [1]: 0.159 nM
B5: Hu3A9-E09 (bispecific antibody, part only; not given: Hu3A9 heavy and light chains, part only)
heavy, part: B1 heavy, part with P75S, C118G, C189G, Y198W, D199G, N200Q, N202K

- EC50 [1]: 0.107 nM
- GEOmean [3]: 3.88
- GeoMean, Internalization at 37° C. [2]: 7.23
B7: Hu3A9-C04 (bispecific antibody, part only; not given: Hu3A9 heavy and light chains, part only)
heavy, part: GGGGSGGGGSGGGGSQSVLTQPPSASGTPGQRVTISCTGSSSNIGSNDVSWYQQLPGTAPKLLIYANSNRPSGVPDRFSGSKSGTSASLAISGLRSEDEADYYCGAWEQWLNGYVFGCGTKLTVLGGGGSGGGGSGGGGSGGGGSEVQLLESGGGLVQPGGSLRLSCAASGFTFSSYDMSWVRQAPGKLEWVSAISYDNGNTYYADSVKGRFTISRDNSKNTLYLQMNSLRAEDTAVYYCAKGVLTTLMNWFDYWGQGTLVTVSS

More lines, now with the values behind:

B2: hu3A9 × 1564_F06 (bispecific antibody, part only; not given: hu3A9 heavy and light chains, part only)
heavy, part: B1 heavy, part with A106T, D108A, D109G
- GeoMean, Internalization at 37° C. [2]: 19.8

B3: Hu3A9-B01 (bispecific antibody, part only; not given: Hu3A9 heavy and light chains, part only)
heavy, part: B1 heavy, part with P75S, C118G, C189G, Y198W, N200K, G201A, N202Q, T203P
- EC50 [1]: 0.145 nM

B4: Hu3A9-B10 (bispecific antibody, part only; not given: Hu3A9 heavy and light chains, part only)
heavy, part: B1 heavy, part with P75S, A106S, D109V, C118G, C189G
- EC50 [1]: 0.156 nM

B6: Hu3A9-A02 (bispecific antibody, part only; not given: Hu3A9 heavy and light chains, part only)
heavy, part: B1 heavy, part with P75S, D109T, S110T, C118G, C189G
- EC50 [1]: 0.13 nM
